The values below come from IntAct's records for PubMed 25910212.

The labels stand for the following.
B1: Keratin, type II cytoskeletal 6A (Homo sapiens), P02538 (parent)
chain: MASTSTTIRSHSSSRRGFSANSARLPGVSRSGFSSVSVSRSRGSGGLGGACGGAGFGSRSLYGLGGSKRISIGGGSCAISGGYGSRAGGSYGFGGAGSGFGFGGGAGIGFGLGGGAGLAGGFGGPGFPVCPPGGIQEVTVNQSLLTPLNLQIDPTIQRVRAEEREQIKTLNNKFASFIDKVRFLEQQNKVLETKWTLLQEQGTKTVRQNLEPLFEQYINNLRRQLDSIVGERGRLDSELRGMQDLVEDFKNKYEDEINKRTAAENEFVTLKKDVDAAYMNKVELQAKADTLTDEINFLRALYDAELSQMQTHISDTSVVLSMDNNRNLDLDSIIAEVKAQYEEIAQRSRAEAESWYQTKYEELQVTAGRHGDDLRNTKQEIAEINRMIQRLRSEIDHVKKQCANLQAAIADAEQRGEMALKDAKNKLEGLEDALQKAKQDLARLLKEYQELMNVKLALDVEIATYRKLLEGEECRLNGEGVGQVNISVVQSTVSSGYGGASGVGSGLGLGGGSSYSYGSGLGVGGGFSSSSGRAIGGGLSSVGGGSSTIKYTTTSSSSRKSYKH
partner: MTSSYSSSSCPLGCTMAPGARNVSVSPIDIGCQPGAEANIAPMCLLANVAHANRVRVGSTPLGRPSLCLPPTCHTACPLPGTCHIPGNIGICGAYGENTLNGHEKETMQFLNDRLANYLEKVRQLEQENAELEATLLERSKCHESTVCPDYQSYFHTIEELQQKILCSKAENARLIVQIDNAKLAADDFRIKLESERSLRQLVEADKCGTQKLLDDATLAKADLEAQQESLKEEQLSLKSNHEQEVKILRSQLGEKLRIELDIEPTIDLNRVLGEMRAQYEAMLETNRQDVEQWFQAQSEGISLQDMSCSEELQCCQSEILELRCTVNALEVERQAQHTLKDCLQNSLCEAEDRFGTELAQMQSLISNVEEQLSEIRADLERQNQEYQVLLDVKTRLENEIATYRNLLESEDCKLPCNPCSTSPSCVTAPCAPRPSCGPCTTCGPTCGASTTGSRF
B2: Beta-crystallin A4 (Homo sapiens), P53673 (parent)
chain: MTLQCTKSAGPWKMVVWDEDGFQGRRHEFTAECPSVLELGFETVRSLKVLSGAWVGFEHAGFQGQQYILERGEYPSWDAWGGNTAYPAERLTSFRPAACANHRDSRLTIFEQENFLGKKGELSDDYPSLQAMGWEGNEVGSFHVHSGAWVCSQFPGYRGFQYVLECDHHSGDYKHFREWGSHAPTFQVQSIRRIQQ
B3: Aspartoacylase (Homo sapiens), P45381 (parent)
chain: MTSCHIAEEHIQKVAIFGGTHGNELTGVFLVKHWLENGAEIQRTGLEVKPFITNPRAVKKCTRYIDCDLNRIFDLENLGKKMSEDLPYEVRRAQEINHLFGPKDSEDSYDIIFDLHNTTSNMGCTLILEDSRNNFLIQMFHYIKTSLAPLPCYVYLIEHPSLKYATTRSIAKYPVGIEVGPQPQGVLRADILDQMRKMIKHALDFIHHFNEGKEFPPCAIEVYKIIEKVDYPRDENGEIAAIIHPNLQDQDWKPLHPGDPMFLTLDGKTIPLGGDCTVYPVFVNEAAYYEKKEAFAKTTKLTLNAKSIRCCLH
partner: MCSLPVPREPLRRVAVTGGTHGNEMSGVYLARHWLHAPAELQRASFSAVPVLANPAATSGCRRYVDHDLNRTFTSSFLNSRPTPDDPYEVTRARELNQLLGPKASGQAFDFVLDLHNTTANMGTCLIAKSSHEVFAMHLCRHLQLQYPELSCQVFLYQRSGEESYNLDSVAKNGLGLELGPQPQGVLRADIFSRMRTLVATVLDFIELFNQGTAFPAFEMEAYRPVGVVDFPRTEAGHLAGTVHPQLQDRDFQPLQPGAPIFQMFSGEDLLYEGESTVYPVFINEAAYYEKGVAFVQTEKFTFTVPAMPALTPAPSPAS

One experiment covers variants of B1. Conditions: with krt38_human KRT38, O76015.
As for N21S, the “effect of a mutation on the interaction” value was “with no effect”.

Regarding T552S, the “effect of a mutation on the interaction” value is “with no effect”.

The variants in another experiment derive from B2. Conditions: with ikzf3_human IKZF3, Q9UKT9.
Chain of ikzf3_human IKZF3, Q9UKT9 (Q9UKT9 whole entry): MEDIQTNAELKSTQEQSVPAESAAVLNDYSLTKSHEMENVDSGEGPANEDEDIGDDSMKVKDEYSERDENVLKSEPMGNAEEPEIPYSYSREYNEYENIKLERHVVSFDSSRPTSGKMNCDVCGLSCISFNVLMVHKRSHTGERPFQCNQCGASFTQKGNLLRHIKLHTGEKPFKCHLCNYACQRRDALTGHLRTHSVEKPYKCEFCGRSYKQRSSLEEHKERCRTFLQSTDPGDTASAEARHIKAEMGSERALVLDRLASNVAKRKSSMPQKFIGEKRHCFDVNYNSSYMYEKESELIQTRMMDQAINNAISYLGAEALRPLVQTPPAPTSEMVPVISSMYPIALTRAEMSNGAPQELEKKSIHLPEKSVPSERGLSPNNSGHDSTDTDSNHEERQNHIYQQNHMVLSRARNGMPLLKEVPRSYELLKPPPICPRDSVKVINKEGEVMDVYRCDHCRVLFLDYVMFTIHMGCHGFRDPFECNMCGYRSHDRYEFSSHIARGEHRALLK
For the variant F94S, the “effect of a mutation on the interaction” value is “disrupting interaction strength”.

Take L69P: the “effect of a mutation on the interaction” value was “disrupting interaction strength”.

With V36M, the “effect of a mutation on the interaction” value is recorded as “disrupting interaction strength”.

The variants in another experiment derive from B2. Conditions: with trip6_human TRIP6, Q15654.
Chain of trip6_human TRIP6, Q15654 (Q15654 whole entry): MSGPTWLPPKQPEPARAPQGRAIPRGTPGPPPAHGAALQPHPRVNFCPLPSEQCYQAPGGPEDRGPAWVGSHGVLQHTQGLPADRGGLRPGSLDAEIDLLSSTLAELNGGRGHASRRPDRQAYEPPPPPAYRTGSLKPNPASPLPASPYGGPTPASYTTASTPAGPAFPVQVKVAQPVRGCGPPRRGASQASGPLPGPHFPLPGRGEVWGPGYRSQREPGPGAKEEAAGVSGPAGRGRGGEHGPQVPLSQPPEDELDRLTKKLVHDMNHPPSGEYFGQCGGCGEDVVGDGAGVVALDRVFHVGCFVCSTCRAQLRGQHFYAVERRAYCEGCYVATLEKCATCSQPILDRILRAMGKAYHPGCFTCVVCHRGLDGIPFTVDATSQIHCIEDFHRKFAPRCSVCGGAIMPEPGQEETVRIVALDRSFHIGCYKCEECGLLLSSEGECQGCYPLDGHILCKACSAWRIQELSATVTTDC
With F94S, the “effect of a mutation on the interaction” value is on record as “disrupting interaction strength”.

As for L69P, the “effect of a mutation on the interaction” value is given as “disrupting interaction strength”.

As for V36M, the “effect of a mutation on the interaction” value is “disrupting interaction strength”.

A further experiment covers variants of B2. Particulars: with gli1_human GLI1, P08151.
Chain of gli1_human GLI1, P08151 (P08151 whole entry): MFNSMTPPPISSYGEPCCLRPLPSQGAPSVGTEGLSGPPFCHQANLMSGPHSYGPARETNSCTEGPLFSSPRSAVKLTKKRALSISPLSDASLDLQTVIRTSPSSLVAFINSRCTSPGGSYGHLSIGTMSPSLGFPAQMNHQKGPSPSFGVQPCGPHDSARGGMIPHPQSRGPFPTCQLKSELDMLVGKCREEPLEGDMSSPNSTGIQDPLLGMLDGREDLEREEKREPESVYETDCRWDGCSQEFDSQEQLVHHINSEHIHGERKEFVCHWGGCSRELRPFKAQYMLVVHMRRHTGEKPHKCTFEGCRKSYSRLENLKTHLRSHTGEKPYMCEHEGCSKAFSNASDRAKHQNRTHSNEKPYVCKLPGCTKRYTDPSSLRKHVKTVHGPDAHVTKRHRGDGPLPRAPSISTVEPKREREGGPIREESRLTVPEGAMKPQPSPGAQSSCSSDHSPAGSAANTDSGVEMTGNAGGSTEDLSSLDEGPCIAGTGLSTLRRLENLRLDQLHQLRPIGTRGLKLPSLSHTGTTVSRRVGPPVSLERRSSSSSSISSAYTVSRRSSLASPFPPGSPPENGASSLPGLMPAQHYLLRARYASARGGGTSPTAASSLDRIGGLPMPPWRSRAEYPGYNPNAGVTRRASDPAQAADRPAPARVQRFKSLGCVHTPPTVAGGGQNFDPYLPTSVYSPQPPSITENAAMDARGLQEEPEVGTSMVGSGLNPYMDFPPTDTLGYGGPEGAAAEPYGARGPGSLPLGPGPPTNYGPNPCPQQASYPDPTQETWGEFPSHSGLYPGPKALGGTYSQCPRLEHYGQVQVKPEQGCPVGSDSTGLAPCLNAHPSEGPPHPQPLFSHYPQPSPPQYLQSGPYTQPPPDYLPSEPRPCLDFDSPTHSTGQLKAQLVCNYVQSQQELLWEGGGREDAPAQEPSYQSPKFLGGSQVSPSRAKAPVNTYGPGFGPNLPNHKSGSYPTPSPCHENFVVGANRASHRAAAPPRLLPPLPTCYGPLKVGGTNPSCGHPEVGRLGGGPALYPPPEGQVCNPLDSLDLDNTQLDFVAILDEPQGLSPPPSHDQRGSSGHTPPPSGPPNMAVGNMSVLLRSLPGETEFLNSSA
F94S: the “effect of a mutation on the interaction” value is “disrupting interaction strength”.

As for L69P, the “effect of a mutation on the interaction” value was “disrupting interaction strength”.

On to V36M, for which the “effect of a mutation on the interaction” value was “disrupting interaction strength”.

The variants in another experiment derive from B2. Particulars: with ccd33_human CCDC33, Q8N5R6.
Chain of ccd33_human CCDC33, Q8N5R6 (Q8N5R6 whole entry): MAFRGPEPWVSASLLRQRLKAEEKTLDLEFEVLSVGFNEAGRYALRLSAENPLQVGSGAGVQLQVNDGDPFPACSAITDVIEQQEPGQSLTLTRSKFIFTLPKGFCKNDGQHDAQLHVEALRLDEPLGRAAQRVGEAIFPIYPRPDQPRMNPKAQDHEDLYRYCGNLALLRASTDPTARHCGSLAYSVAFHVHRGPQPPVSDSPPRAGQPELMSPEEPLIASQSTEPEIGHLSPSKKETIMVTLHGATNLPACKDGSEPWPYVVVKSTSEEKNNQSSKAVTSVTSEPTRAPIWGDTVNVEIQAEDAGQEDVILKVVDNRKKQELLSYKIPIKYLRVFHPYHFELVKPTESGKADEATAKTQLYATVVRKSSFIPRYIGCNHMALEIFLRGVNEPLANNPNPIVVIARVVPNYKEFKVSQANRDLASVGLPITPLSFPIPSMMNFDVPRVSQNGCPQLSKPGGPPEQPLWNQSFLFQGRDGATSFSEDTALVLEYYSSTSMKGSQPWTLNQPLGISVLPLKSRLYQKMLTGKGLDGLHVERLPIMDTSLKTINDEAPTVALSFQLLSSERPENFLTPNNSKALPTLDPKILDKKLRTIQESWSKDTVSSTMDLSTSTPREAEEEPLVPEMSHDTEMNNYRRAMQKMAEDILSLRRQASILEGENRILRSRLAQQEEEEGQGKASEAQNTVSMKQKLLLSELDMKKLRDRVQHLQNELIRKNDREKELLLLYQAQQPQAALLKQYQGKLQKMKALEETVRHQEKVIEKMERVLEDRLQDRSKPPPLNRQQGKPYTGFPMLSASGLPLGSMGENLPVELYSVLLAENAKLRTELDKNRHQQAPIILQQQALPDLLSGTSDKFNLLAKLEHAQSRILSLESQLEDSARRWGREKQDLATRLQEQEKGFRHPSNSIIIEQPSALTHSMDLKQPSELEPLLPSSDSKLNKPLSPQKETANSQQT
Regarding F94S, the “effect of a mutation on the interaction” value is “disrupting interaction strength”.

In the case of L69P, the “effect of a mutation on the interaction” value is “disrupting interaction strength”.

For V36M, the “effect of a mutation on the interaction” value was “disrupting interaction strength”.

In a further experiment the parent is B3. Conditions: with acy3_human ACY3, Q96HD9.
With I143F, the “effect of a mutation on the interaction” value was “disrupting interaction strength”.

Variants of B3 are the subject of the next experiment. Conditions: with acy3_human ACY3, Q96HD9. This is another data set of the same source.
For E24G, the “effect of a mutation on the interaction” value is “disrupting interaction strength”.

E285A: the “effect of a mutation on the interaction” value is on record as “disrupting interaction strength”.

As to M195R, the “effect of a mutation on the interaction” value was “disrupting interaction strength”.
